Measurements published in the domain aggregation screens of Martell et al. (2025).

Assay: soluble fraction after stress (log2 fold change); higher = more stays soluble; pooled small domains, quantitative proteomics
Conditions: stress: 50 degC
How it was run: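 Pooled custom libraries of small protein domains were measured in a high-throughput format, with quantitative proteomics as the read-out. Each library was stressed at 50°C. Aggregation propensity is given as the base-two logarithm of the fold change in how much of each protein stays soluble after the stress. Higher values mean a larger share of the protein remains in solution.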

Sequence	soluble fraction (log2)
HMAPAPYLVKVTANKLNIRSGPGTNYKIQGAITDKGTYTIVDTQGRWGKLKSGAGWIYLNYTKK	-1.9
HMGTMKGFVDGSSVHLRSGPSLSESIRAKVVKGQTLYITERRGDWYRATVHGGGEGWIHTSLVKLAG	0.178
HMTSAPHHIAAVLRDAIYRGVLEEGGPLHQARIAQSLGVSPIPLREALRLLETEGLVEFRGYRGAFVT	-0.492
HMGEAIPVPDIRHKSQADAERLLQDQGLAMMVTDTGYVKTLPANYILEQIPVAGEKVKSGHVVYVIINSG	0.0717
HMHAPRIEVVQIDPEKIGALIGPGGKNIRRITEVTGANLDIDEDNSGKIRVYASDSEAMNRALQEIDLVT	0.193
HMKTKILAPIPGSIMVVDVKVGDTVKVGDRLVQLEAMKMENNITSEKAGKITAVLVTAGQKVLQNEVMIEL	-0.853
HMSTFKSYRGKITASSGVNIRTGAGTNYNKNGALTYNSVVTIVDEKKVSGTTWGKLADGRGWISLDYLKK	-0.554
HMQLASILDDIPGIGKKRKENLLTHFGSFSKIQSADIDALAEVPGISRDLAETIHTYLKTHQ	0.0967
HMNSRTLAYSDFIRKVDKGEVSAVVIDGEQVQVQTKDGQTFVTIQPQSEQMNDKLVEQLIAKDISVKAERQ	0.158
HMDKSLDFASIKSVEIATGRKFGWHALKKWSKSNSSEIKTIPDPNFGEVKTYHKDAWLAVYNINLSPILD	-0.404
HMEFNDLNDDEKAILHIMYNTGEKMTTALAARITNRGRNFASKLLKSLVKKEILEWHGTSKQDRNQYYTLA	-0.0326
HMGKAVTLEEARAIIQAKVPGASPDMIQIWEEHGDGRGRYEGELSYNNMKYEFEMDPKTGIIFDWNA	-0.224
HMDDPQAELLARAVRRVALAAAERTRRNEYGGVYLGLFRQFGISSYRRTPPARLHEALEWLERWRGDLM	-0.0675
HMNRKLKAKATREKIYKSAEKLFSQNDYNKVSVDAIVEAAGVAKGSFYVHFASKDALIAMLINDH	-0.179
HMGDWEDFWEKEARRRKLSLDYQVVRSLSRWSREYDWGEEDVEQFLSQFPEGETVKMEDVELYFE	-1.12
HMAQLPADLSKVKSSQISDQQLTQIAQQAKNSGQSEQAVLQELKQRGLPDTEIQALGARISGLMQ	0.137
HMVSAEQNTLEFIKENVKEDVIEDDIEFYKSLLEDWSVEVDNSSKLLDPGNNNSLLAVIAYSIENEL	-0.0399
HMVLSVRERMGIVLEKVNTETFTDFKELFTVEEGRAGAIVSLLAILQLMKDSLIQLVQNEPNGPIYVKAA	-0.673
HMRHLSVPNRQVEGALDHIRSQGWLAEGMRVFASEDGSARLIPLGPGAPLEMLEPLAKFDVISHEGKPY	-0.0914
HMHSIFPVIRSTSFPTKSNDGELFITSDHTAETRIYYALDLGNTYRLIDQKVMNEINLTESLVKETARF	-1.9
HMVEDFSEVLLQYIREQGGAIALNDKTDAGVIYDTFGVSKKTFKKAVGDLYKKRLIVLGDEGIRLA	-0.619
HMQISDNTILEDAVSRIIDENPKSVSDYFQGKEAVVGFFIGQIMRETKGTANPKIAREIVISHLEAI	-0.778
HMSLAATLSPREIDTVRLIAVGSSNKEIARQLGIAETTVKIHVQHILRKLNLTSRVQVAVFANAEGII	-0.801
HMSSKAVLEKFEALFIDQMLQSMRKATVRSELFDSEGIKLYESLFDKEISEELAKSGGLGLTKDLEQQL	-0.888
HMAIDYYQTLINLGYKLQDRGDYWQTSAIHRGGDNPTALQIYKNTGVWKDYVSGGGFKPFKALVEKSD	-0.802

Sequence	soluble fraction (log2)
HMVLENLKKFIDSKGISVSAFEKSIGMSNNSFRKSLNSGGHIGSDKLENILKIYPELNPVWLLQGEGEML	-0.27
HMVIVMRKDADAASIEKVVSEVKSRGFMPHVSEGESRTLIGAIGPAPTEELREHFAGLAGVETVVRITK	0.113
HMQNSMTTTPDVVGKTGTFAEQMLKAANLNVQFAGDSSGKVVAQDVEAGTSAAYGTIITLTMDS	0.14
HMLHQSLVVNAASGRVTVSLDIVPDEDNPYAVLRATDDSDEPLAQVRVAPSFKLNRASALAWIESQFARP	-0.821
HMQMSDTSMIRDLVLQVLAENPQSIEDFKNGKDRAVGFLVGMVMKKSQGKANPQITNQMIVEELKK	-0.104
HMKRRSVIVSVVRAQVRQSADEAAAVVFEAEKNVSLDYLETMPGGWVKVRHRDGQTGFVRVNQIWG	-0.807
HMQPADYSDLYAAAKSAGEADMRAAFALTDKQERTAAVNAARETIKAALSEEQLADANLGSALKKLEAGV	-0.337
HMEMTEDEITKQFDAMEREAKKEIDTGADKRAFMYGVSRTAAGMAGKNPKYARFITDKAKEVIENIAKYK	0.108
HMSKDQKKFFIEIVSIRGFGSQIGISILNKLSIPQIINAIKTQNKKEISSIPGIGQKMTERLILELNNKFK	-0.0747
HMAEVALFVNGSDVNLRSGPGQESTRVIGSLNLGDEVRIKSQNGQWREVYVPKTRQVGWVAHWLLSEAPP	0.192
HMFTKSNLEKLSNSELILKAIDSGNYSKIEFGGSEALNPDVPSYKKDLKNREELIEILSEMGM	-0.0323
HMKTLLSMNIKNLRKKKNMTLEELAEKVGTSKQTIQRYESGKISNIPSDKIELLAKYLDTTPAKLMGW	0.441
HMKSARDDILSALDKAGEPLSMKDIAELSGRKLSTLRAQMTRLVAEGAVQATAAAHSPDRKYRK	-0.0859
HMNDRERIGKRIAQLRMEAGISQYKLAELTGLAPGNIARIETGKYSTGIDILSKIGDALGYQLDFI	-1.04
HMRLSESLLDDIPGIGAARKRALLQSFGSVRKLRHADAEEIAAKVPGIGLNFAEKIVEALRKK	0.205
HMELEFLTEKQKEALILAVNRGYYDVDSEVTLKRLADELGIARSTYGEHLKRAESEALKMVVSDLLRD	-0.382
HMLHMKAALGELMSIPGMRSELAGTLFDRGYTSLAQLRAATLDDLERVNGLERADARRIHDFLRKS	-0.0753
HMHDLSQQIVRYLIQQGGSSSLTDKSDPQEIYRTFKVSKKKYKQALGNLYKSKTIVITSGKIELVD	-2.69
HMTKDVIEIVDGNKFVFHKTIATDSVSSVINKYHISEADFRTWNELTGDMKVGEEYIVQLSLH	-1.26
HMTNTDYPGKVVPVDPDGKTLKPDGDASYNDKPGTKVKTPTVPGYTAEVPNVEVPVGGGDIKVTYHKKPV	0.372
HMGQISDDGALKKLASEVLAANPQALADWKAGKQQAVSFLVGQAMKASKGRGDAALLGELIRAALD	0.0134
HMETKQYIVEAQDEGTRLDVYLTKELGQSRSYVQSLVKEGHVQVNGKTGKSNLKLSSSSEILVTIPEVQ	-0.0648
HMKIGIYPGTFDPITHGHTDIIRRSLRVFDKVVVAVAPNPSKHPLFTLTERLEMIRIVMKELEHVEVT	0.0231
HMTVSKLKVINYTIRNGDSLWTISRKFNVTVDKVKEWNGLSDRTLLQPGQKLTLYVDPTIQISH	-0.0925
HMENKTGEVTVREDSALTLRQGPGTNYEKVGQAYRGDRVDVLEEQNGWYKVKTYDGKEAWASSSYISIV	0.454

Sequence	soluble fraction (log2)
HMTKTSQEDEDIMRHLDELHTRWPFLGQRKLIEELKDQGIQIGRKRLRRLMKVMGIEAIAPK	-1.29
HMSQITEADYIPNTDKTWGELMEETGESLPNLVERYNNEMTKSNGKEQPQSIIQRIIEDYQMVS	0.0384
HMGSEISYSEFLNRVEQGQVAAVRLDGEQIFITGPTGEAYQTIQPRNTDVLPDLREAGVEIQAAPQ	-0.0723
HMQEHAHLWRLMEDNRSFKADYIAFENGIVLLQNLSSGKISQYPITDFSIEDQLLILKRHELTAHINAN	-3.09
HMKHVDLDNNERYIYGIIGSTKIHVDEVVEKSGMETKHVMAILTNLELKEAIKGIPGGFYLR	-0.506
HMSEQMQVGELVFQLHRKAIKNLHINVLPPDGFVRVSAPQAMTETAIRTAVISRLPWIRRQQQAFAAQ	-2.12
HMIKEGDLVFIWNPKKGDSFLIKVQPGQSQGTHFGQIKHSEIMEHNYGEGIRTPKGQVYYLLRPTLGEFTR	-1.14
HMAATNVKVPDLKGWDYNNAVGKYGDKLSFVKKSIYSDSVSKGIIIYNARVGETVAQGTTIEVTVSLGPKG	-0.205
HMRPHDDHLREQLLGIATETIARTGVEGLSLRTLATDAGTSTSAVYQLFGSRAALLDAVYLRVLE	-1.26
HMPTPLTPREHEIANLIAQGLSNREIADELVISPATAARHVANILAKLGFSSRTQVASWATRHD	-0.179
HMTVKEVGYDTFLTMLDKKEIKQVQVEDNQIIFSDNADPVNYYKTGVFNDPDLVNRLQDAGVEFG	0.312
HMFNDGEIAIYTDPRGDAGETQIWKRGKGYYGQNDSFDFEAKDKKELEMKLKRWGYVLIAGSIDE	-0.291
HMVPAMEVALEDARRAIEQVVSGERTSVQLSSQEAMIRKLQHQMAKDANLFSRSSGVEPQRRVTIYTN	0.0136
HMNTPHLTPREREVLKGIVDGLINKEIAARMGVSVATVITHRNNLTEKLGTRSVSALTIFAVMHGIVR	-2.49
HMTTVTVGSKVRVKAGATFSDGAKPFAEVYNTVYDVQLLSHNGKEARIGIGDQWTGWIYISDLYLANQPAP	-0.102
HMPPDVIENIFKNDANKIIDLYNMAPRGQKETIVEMIKNKRLQGINVDANVLVKLGELTGIDFVN	0.0803
HMKNEFRVYPNPANKEIVTFNQTQDIEVYDTLGKLVLKAKNTNTLDTKSFHSGIYFIKTGSGLTRKLVV	0.107
HMKPGWEDIFRMNQIQLEDAVRTVNRDDTLAPTKKAYLIQNLLASRWIVGNQLQAQKDKTTE	-0.0813
HMNYAVTAARRESILNAALEIFGKSGYNGSSVKQVALAVGMTEAGVLHHFGTKSNLLIEVLRV	≥ 0.62
HMRKTIQDFLSSNKVDIAKLLTLALEKTKEDLYKNLSYNLTNKELEKLKLLIKKREQGIPFAYLS	-0.0368
HMESAVDVFRSILKEKGVTEEEVRQVVAARGKYTLETPIDDYPNEFLYGYVIRYWDQIFDIIQQSREAK	-0.321
HMENYTYKYATSANVNIREEPNTDSTILGKTLLNTEFQVVEDVDGWSKITTEAGYAYIKSEYLSDTE	-0.188
HMLPDGEAFVKVNTSLNIRTGPWGQIVGWFHNNDKVKIIGRDGDWYKISHNGQTRYIHSRYVSSSR	-0.913
HMTIELAEGQHFLQISKSGAPMGNVVRDLIIQTLKITNGNQIKAAKILGISRAKLRYRIEQLGINITGKNI	-2.67
HMPAVGGVVKGAVVSVGRNEVRLDIGGLAIGIIRGPELDKHVDLRIGDEVEATVITLDNEFGELELSL	-0.72
